Test results as given in IntAct's records for PubMed 29281743.

B1: Protein deacetylase HDAC6 (Homo sapiens), Q9UBN7 (parent)
chain: MTSTGQDSTTTRQRRSRQNPQSPPQDSSVTSKRNIKKGAVPRSIPNLAEVKKKGKMKKLGQAMEEDLIVGLQGMDLNLEAEALAGTGLVLDEQLNEFHCLWDDSFPEGPERLHAIKEQLIQEGLLDRCVSFQARFAEKEELMLVHSLEYIDLMETTQYMNEGELRVLADTYDSVYLHPNSYSCACLASGSVLRLVDAVLGAEIRNGMAIIRPPGHHAQHSLMDGYCMFNHVAVAARYAQQKHRIRRVLIVDWDVHHGQGTQFTFDQDPSVLYFSIHRYEQGRFWPHLKASNWSTTGFGQGQGYTINVPWNQVGMRDADYIAAFLHVLLPVALEFQPQLVLVAAGFDALQGDPKGEMAATPAGFAQLTHLLMGLAGGKLILSLEGGYNLRALAEGVSASLHTLLGDPCPMLESPGAPCRSAQASVSCALEALEPFWEVLVRSTETVERDNMEEDNVEESEEEGPWEPPVLPILTWPVLQSRTGLVYDQNMMNHCNLWDSHHPEVPQRILRIMCRLEELGLAGRCLTLTPRPATEAELLTCHSAEYVGHLRATEKMKTRELHRESSNFDSIYICPSTFACAQLATGAACRLVEAVLSGEVLNGAAVVRPPGHHAEQDAACGFCFFNSVAVAARHAQTISGHALRILIVDWDVHHGNGTQHMFEDDPSVLYVSLHRYDHGTFFPMGDEGASSQIGRAAGTGFTVNVAWNGPRMGDADYLAAWHRLVLPIAYEFNPELVLVSAGFDAARGDPLGGCQVSPEGYAHLTHLLMGLASGRIILILEGGYNLTSISESMAACTRSLLGDPPPLLTLPRPPLSGALASITETIQVHRRYWRSLRVMKVEDREGPSSSKLVTKKAPQPAKPRLAERMTTREKKVLEAGMGKVTSASFGEESTPGQTNSETAVVALTQDQPSEAATGGATLAQTISEAAIGGAMLGQTTSEEAVGGATPDQTTSEETVGGAILDQTTSEDAVGGATLGQTTSEEAVGGATLAQTTSEAAMEGATLDQTTSEEAPGGTELIQTPLASSTDHQTPPTSPVQGTTPQISPSTLIGSLRTLELGSESQGASESQAPGEENLLGEAAGGQDMADSMLMQGSRGLTDQAIFYAVTPLPWCPHLVAVCPIPAAGLDVTQPCGDCGTIQENWVCLSCYQVYCGRYINGHMLQHHGNSGHPLVLSYIDLSAWCYYCQAYVHHQALLDVKNIAHQNKFGEDMPHPH

Variants of: B1
Settings: with myd88_human MYD88, Q99836
Sequence of myd88_human MYD88, Q99836 (Q99836 whole entry): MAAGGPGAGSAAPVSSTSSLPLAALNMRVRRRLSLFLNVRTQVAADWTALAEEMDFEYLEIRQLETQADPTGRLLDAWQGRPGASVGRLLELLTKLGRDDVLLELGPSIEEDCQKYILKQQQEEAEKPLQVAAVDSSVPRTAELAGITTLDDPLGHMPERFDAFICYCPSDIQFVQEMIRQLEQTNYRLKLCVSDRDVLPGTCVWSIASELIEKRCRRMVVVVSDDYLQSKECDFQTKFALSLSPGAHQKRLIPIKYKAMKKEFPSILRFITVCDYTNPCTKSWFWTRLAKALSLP

| effect of a mutation on the interaction | Variant |
| --- | --- |
| with no effect | H216A;H611A |
